{"source": "patent US20220348665A1", "key": {"[1]": {"target": "human IGF1R, endogenous, on the surface of breast cancer cell lines (MCF-7, JIMT-1, BT474) (human) (UniProt P08069)", "assay": "FACS on JIMT-1 cells (FL1-H), anti-human FITC; same table: Untreated 1.36, 2nd Ab only 1.89"}, "[2]": {"target": "human IGF1R, endogenous, on the surface of breast cancer cell lines (MCF-7, JIMT-1, BT474) (human) (UniProt P08069)", "assay": "FACS on BT474 cells (FL1-H), anti-human FITC; same table: Untreated 1.8, 2nd Ab only 1.93"}, "[3]": {"target": "human IGF1R, endogenous, on the surface of breast cancer cell lines (MCF-7, JIMT-1, BT474) (human) (UniProt P08069)", "assay": "FACS on MCF-7 cells (FL1-H), anti-human FITC; same table: Untreated 2.51, 2nd Ab only 4.53"}}}
{"substance": "IMC-A12 (antibody)", "values": [{"measurement": "MFI", "setting": "[1]", "value": 23}, {"measurement": "MFI", "setting": "[2]", "value": 18.3}, {"measurement": "MFI", "setting": "[3]", "value": 40.1}]}
